The results in this text go back to IntAct's records for PubMed 31515488.

B1: Protein LDOC1 (Homo sapiens), O95751 (parent)
chain: MVDELVLLLHALLMRHRALSIENSQLMEQLRLLVCERASLLRQVRPPSCPVPFPETFNGESSRLPEFIVQTASYMLVNENRFCNDAMKVAFLISLLTGEAEEWVVPYIEMDSPILGDYRAFLDEMKQCFGWDDDEDDDDEEEEDDY
B2: WW domain-containing adapter protein with coiled-coil (Homo sapiens), Q9BTA9-1 (parent)
chain: MVMYARKQQRLSDGCHDRRGDSQPYQALKYSSKSHPSSGDHRHEKMRDAGDPSPPNKMLRRSDSPENKYSDSTGHSKAKNVHTHRVRERDGGTSYSPQENSHNHSALHSSNSHSSNPSNNPSKTSDAPYDSADDWSEHISSSGKKYYYNCRTEVSQWEKPKEWLEREQRQKEANKMAVNSFPKDRDYRREVMQATATSGFASGMEDKHSSDASSLLPQNILSQTSRHNDRDYRLPRAETHSSSTPVQHPIKPVVHPTATPSTVPSSPFTLQSDHQPKKSFDANGASTLSKLPTPTSSVPAQKTERKESTSGDKPVSHSCTTPSTSSASGLNPTSAPPTSASAVPVSPVPQSPIPPLLQDPNLLRQLLPALQATLQLNNSNVDISKINEVLTAAVTQASLQSIIHKFLTAGPSAFNITSLISQAAQLSTQAQPSNQSPMSLTSDASSPRSYVSPRISTPQTNTVPIKPLISTPPVSSQPKVSTPVVKQGPVSQSATQQPVTADKQQGHEPVSPRSLQRSSSQRSPSPGPNHTSNSSNASNATVVPQNSSARSTCSLTPALAAHFSENLIKHVQGWPADHAEKQASRLREEAHNMGTIHMSEICTELKNLRSLVRVCEIQATLREQRILFLRQQIKELEKLKNQNSFMV

The first experiment covers variants of B1. Particulars: with ch033_human C8orf33, Q9H7E9.
ch033_human C8orf33, Q9H7E9, sequence (Q9H7E9 whole entry): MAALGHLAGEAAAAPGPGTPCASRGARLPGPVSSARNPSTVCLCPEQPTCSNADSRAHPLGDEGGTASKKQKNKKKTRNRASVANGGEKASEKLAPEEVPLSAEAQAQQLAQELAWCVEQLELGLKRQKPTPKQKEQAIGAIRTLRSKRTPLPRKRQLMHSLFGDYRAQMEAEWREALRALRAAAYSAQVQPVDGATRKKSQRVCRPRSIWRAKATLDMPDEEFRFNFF
For L12H, the “effect of a mutation on the interaction” value is on record as “with no effect”.

A further experiment covers variants of B1. Conditions: with KRT15, P19012.
Target sequence in this assay (P19012 whole entry): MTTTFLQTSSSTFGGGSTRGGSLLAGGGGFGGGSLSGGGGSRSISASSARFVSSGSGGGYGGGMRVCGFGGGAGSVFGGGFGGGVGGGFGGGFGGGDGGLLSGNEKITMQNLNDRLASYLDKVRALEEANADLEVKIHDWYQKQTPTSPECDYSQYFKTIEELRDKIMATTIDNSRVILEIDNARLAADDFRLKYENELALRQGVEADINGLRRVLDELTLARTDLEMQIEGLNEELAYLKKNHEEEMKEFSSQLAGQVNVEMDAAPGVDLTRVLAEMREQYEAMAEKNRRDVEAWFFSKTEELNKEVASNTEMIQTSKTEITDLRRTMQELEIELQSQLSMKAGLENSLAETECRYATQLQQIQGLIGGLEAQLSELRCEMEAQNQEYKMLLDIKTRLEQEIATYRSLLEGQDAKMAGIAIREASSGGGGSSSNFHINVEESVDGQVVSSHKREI
Take L12H: the “effect of a mutation on the interaction” value was “with no effect”.

A further experiment covers variants of B1. Conditions: with atf4_human ATF4, P18848.
For L12H, the “effect of a mutation on the interaction” value is given as “with no effect”.

In another experiment the parent is B1. Conditions: with bard1_human BARD1, Q99728.
With L12H, the “effect of a mutation on the interaction” value was “disrupting interaction strength”.

In the next experiment the parent is B1. Particulars: with prp31_human PRPF31, Q8WWY3.
prp31_human PRPF31, Q8WWY3, sequence (Q8WWY3 whole entry): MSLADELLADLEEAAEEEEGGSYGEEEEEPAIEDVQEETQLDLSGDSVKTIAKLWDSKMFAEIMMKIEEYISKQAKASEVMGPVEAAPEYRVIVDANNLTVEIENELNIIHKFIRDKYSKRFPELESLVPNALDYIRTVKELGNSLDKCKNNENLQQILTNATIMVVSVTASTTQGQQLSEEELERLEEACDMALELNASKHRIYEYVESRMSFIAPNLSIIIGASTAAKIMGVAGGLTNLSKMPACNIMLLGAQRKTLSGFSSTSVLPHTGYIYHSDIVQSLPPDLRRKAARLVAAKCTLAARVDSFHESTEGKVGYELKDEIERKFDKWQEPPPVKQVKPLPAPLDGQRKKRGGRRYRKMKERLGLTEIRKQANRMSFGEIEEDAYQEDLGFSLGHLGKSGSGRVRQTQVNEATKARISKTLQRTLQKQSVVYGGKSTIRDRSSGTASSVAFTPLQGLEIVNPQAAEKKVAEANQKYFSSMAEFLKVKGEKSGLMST
Take L12H: the “effect of a mutation on the interaction” value is listed as “disrupting interaction strength”.

In the next experiment the parent is B1. Particulars: with prc1_human PRC1, O43663.
prc1_human PRC1, O43663, sequence (O43663 whole entry): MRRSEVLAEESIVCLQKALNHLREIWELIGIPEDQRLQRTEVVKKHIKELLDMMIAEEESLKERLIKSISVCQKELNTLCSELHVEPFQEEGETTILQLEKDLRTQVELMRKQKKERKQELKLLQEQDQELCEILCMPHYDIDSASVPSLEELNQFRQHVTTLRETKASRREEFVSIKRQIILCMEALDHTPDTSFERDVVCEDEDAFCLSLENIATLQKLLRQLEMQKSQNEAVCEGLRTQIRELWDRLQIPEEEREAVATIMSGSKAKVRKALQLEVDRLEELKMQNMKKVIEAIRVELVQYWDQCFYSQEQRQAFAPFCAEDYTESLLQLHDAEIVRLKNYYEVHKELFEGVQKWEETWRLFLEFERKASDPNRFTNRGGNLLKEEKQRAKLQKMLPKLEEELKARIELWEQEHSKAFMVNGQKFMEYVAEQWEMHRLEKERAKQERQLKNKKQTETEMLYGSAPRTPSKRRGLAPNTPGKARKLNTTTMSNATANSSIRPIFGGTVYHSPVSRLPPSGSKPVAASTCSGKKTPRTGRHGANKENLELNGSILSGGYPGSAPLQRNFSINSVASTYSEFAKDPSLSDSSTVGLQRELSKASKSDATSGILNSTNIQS
For L12H, the “effect of a mutation on the interaction” value is listed as “disrupting interaction strength”.

The variants in a further experiment derive from B1. Particulars: with zbt24_human ZBTB24, O43167.
zbt24_human ZBTB24, O43167, sequence (O43167 whole entry): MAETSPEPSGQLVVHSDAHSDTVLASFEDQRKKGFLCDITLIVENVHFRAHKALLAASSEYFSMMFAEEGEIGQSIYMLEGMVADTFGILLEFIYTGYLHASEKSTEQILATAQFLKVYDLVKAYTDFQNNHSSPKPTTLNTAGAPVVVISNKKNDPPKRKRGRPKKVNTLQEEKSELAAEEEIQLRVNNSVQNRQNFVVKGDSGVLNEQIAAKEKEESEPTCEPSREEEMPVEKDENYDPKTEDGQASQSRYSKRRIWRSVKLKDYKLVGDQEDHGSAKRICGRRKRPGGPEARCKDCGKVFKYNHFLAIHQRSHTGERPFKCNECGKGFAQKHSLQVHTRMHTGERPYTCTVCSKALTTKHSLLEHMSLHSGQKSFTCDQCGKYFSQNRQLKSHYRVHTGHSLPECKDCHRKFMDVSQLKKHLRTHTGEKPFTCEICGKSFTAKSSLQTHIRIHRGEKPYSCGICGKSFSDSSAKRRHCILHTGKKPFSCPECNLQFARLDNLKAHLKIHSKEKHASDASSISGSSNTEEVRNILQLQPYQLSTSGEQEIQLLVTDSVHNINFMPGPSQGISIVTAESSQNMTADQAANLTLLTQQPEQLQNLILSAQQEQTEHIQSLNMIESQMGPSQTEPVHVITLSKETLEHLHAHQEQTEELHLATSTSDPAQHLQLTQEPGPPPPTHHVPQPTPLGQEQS
For the variant L12H, the “effect of a mutation on the interaction” value was “disrupting interaction strength”.

The next experiment covers variants of B1. Conditions: with vatg1_human ATP6V1G1, O75348.
vatg1_human ATP6V1G1, O75348, sequence (O75348 whole entry): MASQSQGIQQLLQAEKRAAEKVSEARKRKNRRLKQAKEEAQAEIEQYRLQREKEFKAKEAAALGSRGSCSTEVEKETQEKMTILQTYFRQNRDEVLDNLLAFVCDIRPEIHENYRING
As for L12H, the “effect of a mutation on the interaction” value was “disrupting interaction strength”.

The variants in a further experiment derive from B1. Conditions: with exoc7_human EXOC7, Q9UPT5.
exoc7_human EXOC7, Q9UPT5, sequence (Q9UPT5 whole entry): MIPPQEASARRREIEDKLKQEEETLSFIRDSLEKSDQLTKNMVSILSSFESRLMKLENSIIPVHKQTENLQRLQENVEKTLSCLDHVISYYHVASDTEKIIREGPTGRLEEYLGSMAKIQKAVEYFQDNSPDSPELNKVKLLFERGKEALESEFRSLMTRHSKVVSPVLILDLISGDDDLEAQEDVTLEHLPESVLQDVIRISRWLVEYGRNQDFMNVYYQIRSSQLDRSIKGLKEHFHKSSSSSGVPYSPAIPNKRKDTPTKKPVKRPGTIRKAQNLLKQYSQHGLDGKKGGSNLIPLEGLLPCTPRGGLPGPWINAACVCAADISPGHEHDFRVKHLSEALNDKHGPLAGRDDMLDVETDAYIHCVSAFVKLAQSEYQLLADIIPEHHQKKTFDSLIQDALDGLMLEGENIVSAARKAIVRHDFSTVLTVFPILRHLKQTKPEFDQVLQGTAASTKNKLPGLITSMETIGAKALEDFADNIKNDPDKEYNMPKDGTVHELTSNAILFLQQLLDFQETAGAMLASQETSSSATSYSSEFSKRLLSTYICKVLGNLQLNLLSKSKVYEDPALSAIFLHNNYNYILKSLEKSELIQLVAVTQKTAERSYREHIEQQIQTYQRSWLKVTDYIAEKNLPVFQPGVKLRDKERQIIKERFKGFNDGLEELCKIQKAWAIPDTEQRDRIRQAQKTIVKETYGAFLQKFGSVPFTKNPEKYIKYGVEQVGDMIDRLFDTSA
As for L12H, the “effect of a mutation on the interaction” value is listed as “disrupting interaction strength”.

A further experiment covers variants of B1. Conditions: with tha10_human THAP10, Q9P2Z0.
tha10_human THAP10, Q9P2Z0, sequence (Q9P2Z0 whole entry): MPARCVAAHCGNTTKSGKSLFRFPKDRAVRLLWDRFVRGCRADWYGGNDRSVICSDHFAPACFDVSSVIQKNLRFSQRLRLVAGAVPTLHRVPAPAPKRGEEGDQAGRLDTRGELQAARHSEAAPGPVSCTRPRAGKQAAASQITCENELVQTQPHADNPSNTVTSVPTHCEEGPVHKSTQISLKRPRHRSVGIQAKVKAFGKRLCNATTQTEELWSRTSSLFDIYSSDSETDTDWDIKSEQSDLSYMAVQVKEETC
In the case of L12H, the “effect of a mutation on the interaction” value is given as “disrupting interaction strength”.

The variants in the next experiment derive from B1. Conditions: with zn250_human ZNF250, P15622.
Consider L12H, for which the “effect of a mutation on the interaction” value is “disrupting interaction strength”.

A further experiment covers variants of B1. Particulars: with smrd1_human SMARCD1, Q96GM5.
Turning to L12H, the “effect of a mutation on the interaction” value is given as “disrupting interaction strength”.

Variants of B1 are the subject of the next experiment. Conditions: with mmta2_human MMTAG2, Q9BU76.
mmta2_human MMTAG2, Q9BU76, sequence (Q9BU76 whole entry): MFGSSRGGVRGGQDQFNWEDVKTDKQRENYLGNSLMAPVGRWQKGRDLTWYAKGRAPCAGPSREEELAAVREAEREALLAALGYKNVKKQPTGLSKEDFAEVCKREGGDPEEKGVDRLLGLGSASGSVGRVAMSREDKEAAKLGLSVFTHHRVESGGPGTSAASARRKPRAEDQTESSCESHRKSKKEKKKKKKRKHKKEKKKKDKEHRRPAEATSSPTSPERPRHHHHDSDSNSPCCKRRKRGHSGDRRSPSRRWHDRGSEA
Regarding L12H, the “effect of a mutation on the interaction” value was “disrupting interaction strength”.

In the next experiment the parent is B1. Conditions: with tnnt1_human TNNT1, P13805.
tnnt1_human TNNT1, P13805, sequence (P13805 whole entry): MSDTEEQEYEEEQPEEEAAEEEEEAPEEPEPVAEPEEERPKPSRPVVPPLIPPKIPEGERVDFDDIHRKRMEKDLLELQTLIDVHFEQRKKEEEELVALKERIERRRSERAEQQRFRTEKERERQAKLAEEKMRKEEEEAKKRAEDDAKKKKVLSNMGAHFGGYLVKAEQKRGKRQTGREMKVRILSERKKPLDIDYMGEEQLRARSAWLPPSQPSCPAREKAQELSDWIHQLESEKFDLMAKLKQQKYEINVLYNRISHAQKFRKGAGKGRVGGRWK
As to L12H, the “effect of a mutation on the interaction” value is “disrupting interaction strength”.

Variants of B1 are the subject of a further experiment. Particulars: with aebp2_human AEBP2, Q6ZN18.
As for L12H, the “effect of a mutation on the interaction” value is “with no effect”.

In another experiment the parent is B2. Particulars: with KRT15, P19012.
Target sequence in this assay (P19012 whole entry): as the sequence (P19012 whole entry) above
Take S475L: the “effect of a mutation on the interaction” value was “with no effect”.

The variants in another experiment derive from B2. Conditions: with nf2l2_human NFE2L2, Q16236.
nf2l2_human NFE2L2, Q16236, sequence (Q16236 whole entry): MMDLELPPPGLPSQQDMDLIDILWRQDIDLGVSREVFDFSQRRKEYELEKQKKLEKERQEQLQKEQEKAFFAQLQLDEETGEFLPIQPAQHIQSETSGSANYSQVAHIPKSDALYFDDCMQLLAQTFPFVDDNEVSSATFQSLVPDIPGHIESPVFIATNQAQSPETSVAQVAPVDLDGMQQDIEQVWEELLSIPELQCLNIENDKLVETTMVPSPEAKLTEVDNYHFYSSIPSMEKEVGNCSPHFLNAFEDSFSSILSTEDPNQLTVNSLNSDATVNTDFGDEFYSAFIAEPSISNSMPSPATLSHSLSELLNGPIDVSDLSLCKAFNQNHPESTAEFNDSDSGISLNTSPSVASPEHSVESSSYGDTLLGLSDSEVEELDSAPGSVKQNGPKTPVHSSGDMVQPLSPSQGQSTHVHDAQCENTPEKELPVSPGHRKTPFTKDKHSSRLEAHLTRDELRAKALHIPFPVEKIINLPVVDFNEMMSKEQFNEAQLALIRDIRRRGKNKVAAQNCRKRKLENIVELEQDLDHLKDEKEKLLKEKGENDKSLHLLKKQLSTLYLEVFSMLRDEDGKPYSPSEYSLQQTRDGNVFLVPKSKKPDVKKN
In the case of S475L, the “effect of a mutation on the interaction” value is given as “with no effect”.

The next experiment covers variants of B2. Particulars: with mtus2_human MTUS2, Q5JR59.
As to S475L, the “effect of a mutation on the interaction” value was “with no effect”.
